Data taken from IntAct's records for PubMed 26694203.

B1: Mesoderm posterior protein 1 (Homo sapiens), Q9BRJ9 (parent)
chain: MAQPLCPPLSESWMLSAAWGPTRRPPPSDKDCGRSLVSSPDSWGSTPADSPVASPARPGTLRDPRAPSVGRRGARSSRLGSGQRQSASEREKLRMRTLARALHELRRFLPPSVAPAGQSLTKIETLRLAIRYIGHLSAVLGLSEESLQRRCRQRGDAGSPRGCPLCPDDCPAQMQTRTQAEGQGQGRGLGLVSAVRAGASWGSPPACPGARAAPEPRDPPALFAEAACPEGQAMEPSPPSPLLPGDVLALLETWMPLSPLEWLPEEPK

Variants of: B1
Settings: with tfe2_human TCF3, P15923
Sequence of tfe2_human TCF3, P15923 (P15923 whole entry): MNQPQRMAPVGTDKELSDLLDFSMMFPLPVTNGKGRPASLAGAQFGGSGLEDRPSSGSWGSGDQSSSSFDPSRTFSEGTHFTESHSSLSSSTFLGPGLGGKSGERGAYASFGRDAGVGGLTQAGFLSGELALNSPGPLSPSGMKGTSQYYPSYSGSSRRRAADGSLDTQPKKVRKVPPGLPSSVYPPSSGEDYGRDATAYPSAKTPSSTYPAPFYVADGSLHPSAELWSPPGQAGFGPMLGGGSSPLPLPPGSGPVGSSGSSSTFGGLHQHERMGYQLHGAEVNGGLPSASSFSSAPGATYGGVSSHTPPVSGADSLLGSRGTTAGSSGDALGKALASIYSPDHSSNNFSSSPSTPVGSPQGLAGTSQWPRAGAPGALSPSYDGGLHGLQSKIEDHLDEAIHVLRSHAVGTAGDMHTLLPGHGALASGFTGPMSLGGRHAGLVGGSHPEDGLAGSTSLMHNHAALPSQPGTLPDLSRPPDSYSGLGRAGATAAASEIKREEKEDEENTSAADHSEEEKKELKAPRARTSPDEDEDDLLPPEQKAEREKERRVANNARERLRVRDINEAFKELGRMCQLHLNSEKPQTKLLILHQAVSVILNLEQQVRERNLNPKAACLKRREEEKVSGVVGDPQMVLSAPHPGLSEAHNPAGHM

| effect of a mutation on the interaction | Variant |
| --- | --- |
| decreasing interaction strength | MAQPLCPPLSESWMLSAAWGPTRRPPPSDKDCGRSLVSSPDSWGSTPADSPVASPARPGTLRDPRAPSVGRRGARSSRLGSGQRQSASEREKLRMRTLARALHELRRFLPPSVAPAGQSPTKIETLRLAIRYIGHLSAVLGLSEESLQRRCRQRGDAGSPRGCPLCPDDCPAQMQTRTQAEGQGQGRGLGLVSAVRAGASWGSPPACPGARAAPEPRDPPALFAEAACPEGQAMEPSPPSPLLPGDVLALLETWMPLSPLEWLPEEPK [L120P] |
| decreasing interaction strength | MAQPLCPPLSESWMLSAAWGPTRRPPPSDKDCGRSLVSSPDSWGSTPADSPVASPARPGTLRDPRAPSVGRRGARSSRLGSGQRQSASEREKLRMRTLARALHELRRFLPPSVAPAGQSLTKIETLRLAIRYIGHLSAVLGLSEESLQRRCRQRGDAGSPRGCPLCPGDCPAQMQTRTQAEGQGQGRGLGLVSAVRAGASWGSPPACPGARAAPEPRDPPALFAEAACPEGQAMEPSPPSPLLPGDVLALLETWMPLSPLEWLPEEPK [D168G] |
| with no effect | MAQPLCPPLSESWMLSAAWGPTRRPPPSDKDCGRSLVSSPDSWGSTPADSPVASPARPGTLRDPRAPSVGRRGARSSRLGSGQRQSASEREKLRMRTLARALHELRRFLPPSVAPAGQSLTKIETLRLAIRYIGHLSAVLGLSEESLQRRCRQRGDAGSPRGCPLCPDDCPAQMQTRTQAEGQGQGRGLGLVSAVRAGASWGSPPACPGARAAPEPRDPPALFAEAACPEGQAMEPSPPSPLLPGDVLALLETWMPLSPLEWLPEEPN [K268N] |

The remaining lines, values behind:

| Variant | effect of a mutation on the interaction |
| --- | --- |
| MAQPLCPPLSESWMLSAAWGPTRRPPPSDKDCGRSLVSSPDSWGSTPADSPVASPARPGTLRDPRAPSVDRRGARSSRLGSGQRQSASEREKLRMRTLARALHELRRFLPPSVAPAGQSLTKIETLRLAIRYIGHLSAVLGLSEESLQRRCRQRGDAGSPRGCPLCPDDCPAQMQTRTQAEGQGQGRGLGLVSAVRAGASWGSPPACPGARAAPEPRDPPALFAEAACPEGQAMEPSPPSPLLPGDVLALLETWMPLSPLEWLPEEPK [G70D] | with no effect |
| MAQPLCPPLSESWMLSAAWGPTRRPPPSDKDCGRSLVSSPDSWGSTPADSPVASPARPGTLRDPRAPSVGRRGARSSRLGSGQRQSASEREKLRMRTLARALHKLRRFLPPSVAPAGQSLTKIETLRLAIRYIGHLSAVLGLSEESLQRRCRQRGDAGSPRGCPLCPDDCPAQMQTRTQAEGQGQGRGLGLVSAVRAGASWGSPPACPGARAAPEPRDPPALFAEAACPEGQAMEPSPPSPLLPGDVLALLETWMPLSPLEWLPEEPK [E104K] | decreasing interaction strength |
